{"source": "patent US20260209334A1", "about": "(MAX PLANCK GESELLSCHAFT ZUR F RDERUNG DER WISSENSCHAFTEN E V, published 2026)", "binders": {"B1": {"name": "Bm18F11 (VHH)", "VHH": "QVQLVESGGDLVQAGGSLRLSCAASGLTGSSYAMGWFRQAPGKEREFVAAISWISGDTKYTDSVKGRFTMSRDNAKKQVYLEMNSLKPEDTAVYYCNDMPYGLDTRMDEYVYWGQGTQVTVSS", "notes": "Class A, first generation"}, "B2": {"name": "Bm44C09 (VHH)", "VHH": "B1 VHH with D10G, T28A, G29V, D57G, T61A, G66D, E109D, V111K, T117I", "notes": "Class A, second generation"}, "B3": {"name": "VHH664 (VHH)", "VHH": "EVQLVESGGGLVQAGGSLRLSCAASGRTYDAMGWLRQAPGKEREFVAAISGSGDDTYYADSVKGRFTISKDNAGITMYLQMNSLKPEDTAVYYCATRRGLYYVWDSNDYENWGQGTQVTVSS", "notes": "Control VHH of Ablynx, disclosed in WO2012156219"}, "B4": {"name": "Re42F08 (VHH)", "VHH": "QVQLVESGGGLVKAGGSLRLSCVVSGHTSEISAMGWYRQAPGKQRELVALITSRSGDTHYSDSVKGRFSISRDNAKNTMYLQMNSLNPDDTAVYYCVHNEPGHLYMAQGTQVTVSS", "notes": "Class B, first generation"}, "B5": {"name": "Bm17B02 (VHH)", "VHH": "B4 VHH with K13N, A14T", "notes": "Class B, first generation; For the crystal it was made with a His14-ScSUMO tag that was cleaved off"}, "B6": {"name": "Bm44B04 (VHH)", "VHH": "QVQLVESGGGLVRTGGSLRLSCSVSGDISSQSAMGWYRQVPGRQRELVAMIHTTKGDTYYADSVKGRFTISRINANNTIYLQMNNLKPEDTAIYYCTHNEPGDLYMGQGTQVTVSS", "notes": "Class B, second generation"}, "B7": {"name": "Bm44G07 (VHH)", "VHH": "B6 VHH with E6Q, R13Q, G66D, Y80H", "notes": "Class B, second generation"}}, "key": {"[1]": {"biological_target": "T1, recombinant human IL-17F (produced in HEK cells, Proteintech HZ-1116) (human, UniProt Q96PD4 31-163)", "T1 sequence (looked up)": "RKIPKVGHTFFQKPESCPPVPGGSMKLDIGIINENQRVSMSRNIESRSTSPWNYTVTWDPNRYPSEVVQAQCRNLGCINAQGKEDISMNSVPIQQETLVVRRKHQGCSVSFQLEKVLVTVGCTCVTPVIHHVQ", "test": "cell-based or functional assay"}, "[2]": {"biological_target": "T2, human IL-17A with C-terminal Avi-tag, biotinylated, immobilized on BLI sensors (human, UniProt Q16552 24-155, biotin on the C-terminal Avi-tag (BirA))", "T2 construct": "also called biotinylated IL-17A; not shown: C-terminal Avi-tag", "test": "BLI, biotinylated IL-17A immobilized on streptavidin sensors, monovalent VHH as analyte (25, 50, 100 nM), mass transport fit"}, "[3]": {"biological_target": "T3, recombinant human IL-17A (produced in HEK cells, Proteintech HZ-1113) (human, UniProt Q16552 24-155)", "test": "cell-based or functional assay"}, "[4]": {"biological_target": "T1, recombinant human IL-17F (produced in …)", "test": "cell-based or functional assay", "remark": "listed apart in the source"}, "[5]": {"biological_target": "recombinant human IL-17A/F (produced in CHO cells, R&D Systems 5837-IL) (human, UniProt Q16552 24-155; Q96PD4 31-163, limits assumed)", "sequence (Q16552 24-155 limits assumed, chain 1 of 2, one chain of several)": "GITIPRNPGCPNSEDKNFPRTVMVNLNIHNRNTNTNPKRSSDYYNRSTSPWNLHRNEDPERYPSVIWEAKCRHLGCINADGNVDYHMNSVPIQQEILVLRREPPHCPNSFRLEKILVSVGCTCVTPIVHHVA", "test": "cell-based or functional assay"}, "[6]": {"biological_target": "T3, recombinant human IL-17A (produced in …)", "test": "cell-based or functional assay", "remark": "listed apart in the source"}, "[7]": {"biological_target": "T2, human IL-17A with C-terminal Avi-tag, …", "test": "BLI, biotinylated IL-17A immobilized, monovalent VHH as analyte"}, "[8]": {"biological_target": "T4, human IL-17F with C-terminal Avi-tag, biotinylated, immobilized on BLI sensors (human, UniProt Q96PD4 31-163, biotin on the C-terminal Avi-tag (BirA))", "T4 construct": "also called biotinylated IL-17F; not shown: C-terminal Avi-tag", "T4 sequence": "T1 sequence (looked up)", "test": "BLI, biotinylated IL-17F immobilized, monovalent VHH as analyte"}, "[9]": {"biological_target": "T1, recombinant human IL-17F (produced in …)", "test": "cell-based or functional assay", "remark": "listed apart in the source"}, "[10]": {"biological_target": "T1, recombinant human IL-17F (produced in …)", "test": "cell-based or functional assay", "remark": "listed apart in the source"}, "[11]": {"biological_target": "T2, human IL-17A with C-terminal Avi-tag, …", "test": "BLI, biotinylated IL-17A immobilized, monovalent VHH as analyte; 2:1 heterogenous model, high affinity component"}, "[12]": {"biological_target": "T4, human IL-17F with C-terminal Avi-tag, …", "test": "BLI, biotinylated IL-17F immobilized, monovalent VHH as analyte; 2:1 heterogenous model, high affinity component"}, "[13]": {"biological_target": "T2, human IL-17A with C-terminal Avi-tag, …", "test": "BLI, biotinylated IL-17A immobilized on streptavidin sensors, monovalent VHH as analyte (20, 100 nM), 2:1 heterogenous fit, low affinity component"}, "[14]": {"biological_target": "T4, human IL-17F with C-terminal Avi-tag, …", "test": "BLI, biotinylated IL-17F immobilized on streptavidin sensors, monovalent VHH as analyte (20, 100 nM), 2:1 heterogenous fit, low affinity component"}, "[15]": {"biological_target": "T2, human IL-17A with C-terminal Avi-tag, …", "test": "BLI, biotinylated IL-17A immobilized on streptavidin sensors, monovalent VHH as analyte (25, 50, 100 nM), 2:1 heterogenous fit, high affinity component"}}, "note": "Positions count from the first letter of the chain named. Like-named read-outs stand apart in the source and are kept apart here.", "data": [{"binder": "B1", "values": [{"measurement": "IC50 (read off the curve), SEAP reporter, HEK-Blue IL-17 cells, 0.85 nM IL-17F", "setting": "[1]", "result": "~5", "unit": "nM"}, {"measurement": "Kd", "setting": "[2]", "result": 1, "unit": "nM"}]}, {"binder": "B2", "values": [{"measurement": "Neutralization potency, ranking from 1 = the best to 4 (HEK-Blue IL-17 reporter cells)", "setting": "[3]", "result": 4, "unit": "rank"}, {"measurement": "Neutralization potency, ranking from 1 = the best to 4 (HEK-Blue IL-17 reporter cells)", "setting": "[4]", "result": 1, "unit": "rank"}, {"measurement": "Neutralization potency, ranking from 1 = the best to 4 (HEK-Blue IL-17 reporter cells)", "setting": "[5]", "result": 1, "unit": "rank"}, {"measurement": "IC50 (read off the curve), SEAP reporter, HEK-Blue IL-17 cells, 0.17 nM IL-17A", "setting": "[6]", "result": "~2", "unit": "nM"}, {"measurement": "Kd", "setting": "[7]", "result": 2, "unit": "nM"}, {"measurement": "Kd", "setting": "[8]", "result": 0.1, "unit": "nM"}]}, {"binder": "B3", "values": [{"measurement": "Neutralization potency, ranking from 1 = the best to 4 (HEK-Blue IL-17 reporter cells)", "setting": "[3]", "result": 2, "unit": "rank"}, {"measurement": "Neutralization potency, ranking from 1 = the best to 4 (HEK-Blue IL-17 reporter cells)", "setting": "[4]", "result": 4, "unit": "rank"}, {"measurement": "Neutralization potency, ranking from 1 = the best to 4 (HEK-Blue IL-17 reporter cells)", "setting": "[5]", "result": 2, "unit": "rank"}, {"measurement": "IC50 (read off the curve), SEAP reporter, HEK-Blue IL-17 cells, 0.85 nM IL-17F", "setting": "[9]", "result": "~0.06", "unit": "µg/mL"}, {"measurement": "Kd", "setting": "[7]", "result": 0.15, "unit": "nM"}, {"measurement": "Kd", "setting": "[8]", "result": 12, "unit": "nM"}]}, {"binder": "B4", "values": [{"measurement": "Neutralization potency, ranking from 1 = the best to 4 (HEK-Blue IL-17 reporter cells)", "setting": "[3]", "result": 2, "unit": "rank"}, {"measurement": "Neutralization potency, ranking from 1 = the best to 4 (HEK-Blue IL-17 reporter cells)", "setting": "[4]", "result": 4, "unit": "rank"}, {"measurement": "Neutralization potency, ranking from 1 = the best to 4 (HEK-Blue IL-17 reporter cells)", "setting": "[5]", "result": 3, "unit": "rank"}, {"measurement": "IC50 (read off the curve), SEAP reporter, HEK-Blue IL-17 cells, 0.85 nM IL-17F", "setting": "[10]", "result": "~5", "unit": "nM"}, {"measurement": "Kd", "setting": "[11]", "result": 1, "unit": "nM"}, {"measurement": "Kd", "setting": "[12]", "result": 6, "unit": "nM"}, {"measurement": "KD2", "setting": "[13]", "result": 60, "unit": "nM"}, {"measurement": "KD2", "setting": "[14]", "result": 60, "unit": "nM"}, {"measurement": "Kd", "setting": "[15]", "result": 1, "unit": "nM"}]}, {"binder": "B5", "values": [{"measurement": "Kd", "setting": "[15]", "result": 0.7, "unit": "nM"}]}, {"binder": "B6", "values": [{"measurement": "Neutralization potency, ranking from 1 = the best to 4 (HEK-Blue IL-17 reporter cells)", "setting": "[3]", "result": 2, "unit": "rank"}, {"measurement": "Neutralization potency, ranking from 1 = the best to 4 (HEK-Blue IL-17 reporter cells)", "setting": "[4]", "result": 2, "unit": "rank"}, {"measurement": "Neutralization potency, ranking from 1 = the best to 4 (HEK-Blue IL-17 reporter cells)", "setting": "[5]", "result": 1, "unit": "rank"}, {"measurement": "Kd", "setting": "[11]", "result": 0.6, "unit": "nM"}, {"measurement": "Kd", "setting": "[12]", "result": 0.35, "unit": "nM"}, {"measurement": "KD2", "setting": "[13]", "result": 25, "unit": "nM"}, {"measurement": "KD2", "setting": "[14]", "result": 20, "unit": "nM"}]}, {"binder": "B7", "values": [{"measurement": "Neutralization potency, ranking from 1 = the best to 4 (HEK-Blue IL-17 reporter cells)", "setting": "[3]", "result": 3, "unit": "rank"}, {"measurement": "Neutralization potency, ranking from 1 = the best to 4 (HEK-Blue IL-17 reporter cells)", "setting": "[4]", "result": 1, "unit": "rank"}, {"measurement": "Neutralization potency, ranking from 1 = the best to 4 (HEK-Blue IL-17 reporter cells)", "setting": "[5]", "result": 4, "unit": "rank"}, {"measurement": "Kd", "setting": "[11]", "result": 3, "unit": "nM"}, {"measurement": "Kd", "setting": "[12]", "result": 1, "unit": "nM"}, {"measurement": "KD2", "setting": "[13]", "result": 120, "unit": "nM"}, {"measurement": "KD2", "setting": "[14]", "result": 40, "unit": "nM"}]}]}
